This note sets out measurements from patent publication US20170182124A1, “FGF21 Derivatives and Uses Thereof” (Novo Nordisk A/S, priority 2014, published 2017).

Substitutions are numbered along the chain they refer to. Where two headings read alike, the source gives them in different places.

This assay has as its target FGF receptor/BKL complex. As to the kind of experiment: FGF receptor potency in an Erk phosphorylation assay in HEK293 overexpressing human BKL. Format: cell-based. Conditions: for EC50: HEK293/BKL cells, pERK after 12 minutes. Here is the method:
In order to test the binding of the FGF21 derivatives to albumin, the assay was performed in the absence of serum albumin as well as in the presence of human serum albumin (HSA) (0.1% final assay concentration). An increase in EC50 value (decrease in potency) in the presence of serum albumin for FGF21 derivatives would indicate binding to serum albumin and represents a method to predict a protracted pharmacokinetic profile of the test substance in animal models. MetFGF21 (SEQ ID NO:2) is included for reference.
HEK293 cells endogenously express several FGF receptors, including FGFR1c, FGFR3c and FGFR4. These cells are unresponsive to FGF21 until transfected with the co-receptor beta-klotho (BKL). Activation of the FGF receptor/BKL complex leads to activation of the MAPK/ERK signalling pathway and phosphorylation of ERK. The level of phosphorylated ERK (pERK) at a given time point increases with increasing concentrations of FGF21. As described below the level of pERK is measured after 12 minutes of stimulation with a range of FGF21 analogue concentrations.
The HEK293/beta-klotho cells are seeded with 30.000 cells/well in 96 well plates in DMEM (BioWhittaker #BE12-604F/U1), supplemented with 10% FCS (Gibco #16140-071), 1% penicillin/streptomycin (Gibco #15140), 100 µg/ml Hygromycin B, (Calbiochem, # 400052). Two days later and 2 hours before addition of compound the cell medium is exchanged with 100 ∞l basal medium (DMEM (BioWhittaker #BE12-604F/U1)). The FGF21 analogues are diluted in assay medium (DMEM (BioWhittaker #BE12-604F/U1) supplemented with 0.02% Tween20), warmed to 37° C., added to the cells (100 μl) and incubated at 37° C. for 12 minutes. The FGF21 derivatives were also tested in the presence of 0.1% HSA (Sigma—A1887). All medium is quickly removed and 50 μl lysis buffer is added pr. well. The plate is shaken for 5 minutes and the lysate is ready for measurement of pERK. pERK is measured in 384 well plates with the AlphaScreen SureFire kit (PerkinElmer #TGRES10K). This kit is based on ERK and pERK specific antibodies coupled to donor and acceptor beads. The presence of pERK will bring acceptor and donor beads in close proximity and a signal is generated that is read on EnVision. The data are analysed using GraphPad Prism and the potency of the FGF21 proteins is described as absolute EC50 value.

Where [1] appears, read: presence of 0.1% HSA, read-out: EC50 (0.1% HSA).

Chain of FGF receptor/BKL complex (Q86Z14 whole entry, one chain of several): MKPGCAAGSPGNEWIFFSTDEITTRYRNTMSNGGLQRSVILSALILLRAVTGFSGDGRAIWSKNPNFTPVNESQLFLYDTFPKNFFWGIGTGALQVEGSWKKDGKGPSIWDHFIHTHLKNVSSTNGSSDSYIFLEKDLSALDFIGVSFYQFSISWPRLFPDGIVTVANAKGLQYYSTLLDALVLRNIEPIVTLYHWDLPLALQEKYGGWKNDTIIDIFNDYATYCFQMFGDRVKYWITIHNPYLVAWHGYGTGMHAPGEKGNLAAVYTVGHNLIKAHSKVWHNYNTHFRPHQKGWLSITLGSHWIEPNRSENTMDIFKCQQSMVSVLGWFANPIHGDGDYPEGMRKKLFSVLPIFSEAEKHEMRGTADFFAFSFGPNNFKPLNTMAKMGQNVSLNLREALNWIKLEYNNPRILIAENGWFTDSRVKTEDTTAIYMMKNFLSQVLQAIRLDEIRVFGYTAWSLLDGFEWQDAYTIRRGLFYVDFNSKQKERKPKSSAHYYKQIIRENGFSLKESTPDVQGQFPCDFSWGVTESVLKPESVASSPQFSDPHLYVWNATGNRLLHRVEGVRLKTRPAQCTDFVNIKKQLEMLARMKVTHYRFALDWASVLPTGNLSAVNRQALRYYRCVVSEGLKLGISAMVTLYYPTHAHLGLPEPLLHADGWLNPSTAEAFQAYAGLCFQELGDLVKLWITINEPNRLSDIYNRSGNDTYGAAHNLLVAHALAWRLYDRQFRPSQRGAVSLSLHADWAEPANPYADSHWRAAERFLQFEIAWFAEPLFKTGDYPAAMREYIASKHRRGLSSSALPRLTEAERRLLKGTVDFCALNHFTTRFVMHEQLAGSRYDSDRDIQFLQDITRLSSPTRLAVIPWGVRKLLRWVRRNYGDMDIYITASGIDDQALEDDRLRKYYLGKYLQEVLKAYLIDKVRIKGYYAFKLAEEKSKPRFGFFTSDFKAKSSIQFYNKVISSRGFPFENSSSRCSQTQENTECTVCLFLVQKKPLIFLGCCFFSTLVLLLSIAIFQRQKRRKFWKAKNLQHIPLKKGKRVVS

For “S{Beta-168}-[2-[2-[[2-[2-[2-[[2-[2-[2-[[(4S)-4-carboxy-4-(13-carboxytridecanoyl-amino)butanoyl]amino]ethoxy]ethoxy]acetyl]amino]ethoxy]ethoxy]acetyl]amino]-ethylamino]-2-oxoethyl]-Ala[Gln121,Cys168]FGF21 [Compound 34]”, the EC50 – broadly, the midpoint of the concentration-response curve – (absence of HSA, read-out: EC50) was 667 nM and the EC50 under setting [1] came to 4260 nM.

B1: Ala[Gln121, Leu168, Cys175]FGF21 (protein)
chain: HPIPDSSPLLQFGGQVRQRYLYTDDAQQTEAHLEIREDGTVGGAADQSPESLLQLKALKPGVIQILGVKTSRFLCQRPDGALYGSLHFDPEACSFRELLLEDGYNVYQSEAHGLPLHLPGQKSPHRDPAPRGPARFLPLPGLPPALPEPPGILAPQPPDVGSSDPLSLVGPSQGCSPSYAS
notes: FGF21 analogue
Regarding B1, the EC50 (absence of HSA, read-out: EC50) was determined as 11 nM.

B2: S{Beta-173}-[2-[2-[[2-[2-[2-[[2-[2-[2-[[(4S)-4-carboxy-4-(15-carboxypentadecanoyl-amino)butanoyl]amino]ethoxy]ethoxy]acetyl]amino]ethoxy]ethoxy]acetyl]amino]-ethylamino]-2-oxoethyl]-Ala[Gln121,Leu168, … (protein)
chain: B1 chain with Q173C, C175R
For the molecule B2, the EC50 (absence of HSA, read-out: EC50) was determined as 3 nM and the EC50 under setting [1] was 4 nM.

B3: S{Beta-175}-[2-[2-[[2-[2-[2-[[2-[2-[2-[[(4S)-4-carboxy-4-(15-carboxypentadecanoyl-amino)butanoyl]amino]ethoxy]ethoxy]acetyl]amino]ethoxy]ethoxy]acetyl]amino]-ethylamino]-2-oxoethyl]-Ala[Gln121,Leu168, … (protein)
chain: B1 chain
With B3, the EC50 runs as follows: (absence of HSA, read-out: EC50) 1 nM; under setting [1], 1 nM.

B4: 16-[[(1S)-4-[2-[2-[2-[2-[2-[2-(2-acetamidoethylamino)-2-oxo-ethoxy]ethoxy]ethylamino]-2-oxo-ethoxy]ethoxy]ethylamino]-1-carboxy-4-oxo-butyl]amino]-16-oxo-hexadecanoic … (protein)
chain: B1 chain with G174C, C175R
Regarding B4, the EC50 reads like this: (absence of HSA, read-out: EC50) 2 nM; under setting [1], 4 nM.

B5: 18-[[(1S)-4-[2-[2-[2-[2-[2-[2-(2-acetamidoethylamino)-2-oxo-ethoxy]ethoxy]ethylamino]-2-oxo-ethoxy]ethoxy]ethylamino]-1-carboxy-4-oxo-butyl]amino]-18-oxo-octadecanoic … (protein)
chain: B1 chain with G174C, C175R
Regarding B5, the EC50 reads like this: (absence of HSA, read-out: EC50) 1 nM; under setting [1], 1 nM.

B6: 18-[[(1S)-4-[2-[2-[2-[2-[2-[2-(2-acetamidoethylamino)-2-oxo-ethoxy]ethoxy]ethylamino]-2-oxo-ethoxy]ethoxy]ethylamino]-1-carboxy-4-oxo-butyl]amino]-18-oxo-octadecanoic … (protein)
chain: B1 chain with G170C, C175R
In the case of B6, the EC50 reads like this: (absence of HSA, read-out: EC50) 1 nM; under setting [1], 20 nM.

B7: S{Beta-174}-[2-[2-[[2-[2-[2-[[2-[2-[2-[[(4S)-4-carboxy-4-(13-carboxytridecanoyl-amino)butanoyl]amino]ethoxy]ethoxy]acetyl]amino]ethoxy]ethoxy]acetyl]amino]-ethylamino]-2-oxoethyl]-Ala[Gln121,Leu168,Cy … (protein)
chain: B1 chain with G174C, C175R
With B7, the concentration giving a half-maximal response (EC50) (absence of HSA, read-out: EC50) came to 4 nM and the EC50 under setting [1] was found to be 4 nM.

B8: S{Beta-176}-[2-[2-[[2-[2-[2-[[2-[2-[2-[[(4S)-4-carboxy-4-(15-carboxypentadecanoyl-amino)butanoyl]amino]ethoxy]ethoxy]acetyl]amino]ethoxy]ethoxy]acetyl]amino]-ethylamino]-2-oxoethyl]-Ala[Gln121,Leu168, … (protein)
chain: B1 chain with C175R, S176C
B8: the concentration giving a half-maximal response (EC50) came to 214 nM (absence of HSA, read-out: EC50) and 373 nM under setting [1].

B9: S{Beta-169}-[2-[2-[[2-[2-[2-[[2-[2-[2-[[(4S)-4-carboxy-4-(15-carboxypentadecanoyl-amino)butanoyl]amino]ethoxy]ethoxy]acetyl]amino]ethoxy]ethoxy]acetyl]amino]-ethylamino]-2-oxoethyl]-Ala[Gln121,Leu168, … (protein)
chain: B1 chain with V169C, C175R
On to B9, for which the EC50 is, setting by setting: (absence of HSA, read-out: EC50) 25 nM; under setting [1], 20 nM.

B10: Ala[Gln121, Cys168]FGF21 (protein)
chain: AHPIPDSSPLLQFGGQVRQRYLYTDDAQQTEAHLEIREDGTVGGAADQSPESLLQLKALKPGVIQILGVKTSRFLCQRPDGALYGSLHFDPEACSFRELLLEDGYNVYQSEAHGLPLHLPGQKSPHRDPAPRGPARFLPLPGLPPALPEPPGILAPQPPDVGSSDPLSCVGPSQGRSPSYAS
modifications: N-terminal Ala
In the case of B10, the EC50 (absence of HSA, read-out: EC50) was 492 nM. The “potency in HEK293/BKL cells compared with MetFGF21 or corresponding analogue (in words)” value (absence of HSA) is listed as “decreased potency”.

B11: Ala[Gln121, Leu168, Cys173]FGF21 (protein)
chain: B10 chain with C169L, G175C
modifications: N-terminal Ala
notes: FGF21 analogue
As for B11, the EC50 (absence of HSA, read-out: EC50) was 4 nM.

B12: Ala[Gln121, Leu168, Cys170]FGF21 (protein)
chain: B10 chain with C169L, G171C
modifications: N-terminal Ala
B12: the EC50 (absence of HSA, read-out: EC50) was 7 nM.

B13: Ala[Gln121, Leu168, Cys171]FGF21 (protein)
chain: B10 chain with C169L, S173C
modifications: N-terminal Ala
notes: FGF21 analogue
For B13, for the setting “absence of HSA, read-out: EC50”, the half-maximal effective concentration (EC50) was determined as 8 nM.

B14: Ala[Gln121, Leu168, Cys174]FGF21 (protein)
chain: B10 chain with C169L, R176C
modifications: N-terminal Ala
notes: FGF21 analogue
On to B14, for which the EC50 (absence of HSA, read-out: EC50) worked out at 5 nM.

B15: Ala[Gln121, Cys167, Leu168,]FGF21 (protein)
chain: B10 chain with S168C, C169L
modifications: N-terminal Ala
Regarding B15, the EC50 (absence of HSA, read-out: EC50) was 4 nM.

B16: Ala[Gln121, Leu168, Cys177]FGF21 (protein)
chain: B10 chain with C169L, P178C
modifications: N-terminal Ala
With B16, the concentration for a half-maximal effect (EC50) (absence of HSA, read-out: EC50) was 416 nM.

B17: Ala[Gln121, Leu168, Cys172]FGF21 (protein)
chain: B10 chain with C169L, Q174C
modifications: N-terminal Ala
notes: FGF21 analogue
On to B17, for which, for the setting “absence of HSA, read-out: EC50”, the EC50 amounted to 5 nM.

B18: Ala[Gln121, Leu168, Cys169]FGF21 (protein)
chain: B10 chain with C169L, V170C
modifications: N-terminal Ala
For B18, the EC50 (absence of HSA, read-out: EC50) stood at 22 nM.
